According to the nanobody polyreactivity screen of Harvey et al. (2022):

Assay: yeast display, Sf9 membrane polyspecificity reagent, FACS + sequencing; frameworks hold sequencing errors
Summary of the method: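 Nanobodies from a synthetic yeast display library (Saccharomyces cerevisiae BJ5465), induced 36–48 hours with galactose, were stained 1 hour at 4 °C with 10% biotinylated, detergent-solubilized Sf9 membrane reagent, enriched on streptavidin microbeads, then FACS-sorted. Anti-HA (expression) and streptavidin (reagent binding) fluorescence set low and high (top ~1%) gates. Polyreactivity labels come from the gate of origin. Genes were colony-PCR amplified, MiSeq 2 × 250 sequenced and filtered by CDR length.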

| Sequence | polyreactivity (PSR sort gate) |
| --- | --- |
| QVQLVESGGGLVQAGGSLRLSCAASGRIFDTNAMGWYRQAPGKEREFVAAISRSGGSTYYADSVKGRFTISRDNAKNTVYLQMNSLKPEDTAVYYCAARWYVLQPLGYDASRYGYWGQGTQVTVSS | high polyreactivity |
| QVQLVESGGGLVQAGGSLRLSCAASGSIFAVNTMGWYRQAPGKERELVAAISQRGSSTYYADSVKGRFTISRDNAKNTVYLKMNSMKPEDTAVFFCAKRFIYGLYNYWGQGTQVTVSS | high polyreactivity |
| HDHLVESGAGLVQAGGSLRLSCAASGLIFPSNAMGWYRQAPGKERELVAAITNGGRTYYADSVKGRFTISRDNATNTVYLQMNSMKPEDTSVYYCNAGYTYRGYWSYGYWGQGTQVTVSS | high polyreactivity |
| QVQLVESGGGLVQAGGSLRLSCAASGSIFGDNTMGWYRQAPGKERELVAAISWRGGSTYYADSVKGRFTISRDNAKNTVYLQMNSLKPEDTAVYYCIGGPGGYDYWGQGTQVTVSS | low polyreactivity |
| QVQLVESGGGLVQAGGSLRLSCAASGFIFGIYAMGWYRQAPGKERELVAAISYRGGRTYYADSVKGRFTISRDNAKNTVYLQMNSLKPEDTAVYYCNTRGYRPGYNYWGQCTQVTVSS | high polyreactivity |
| QVQLVESGGGLVQAGGSLRLSCAASVSIFYFYAMGWYIQAPGKERELVAAITDGGSTHYADSVKGRFTISRDNAKNTVYLQMNSLKPEDTAVYYCAAQWHYYLGSGYQYDYWGQGTQVTVSS | low polyreactivity |
| EVQLVESGGGLLQPGGSLRVSFAASGYIYSRYRMGWYRQAPGKGREFVAAISGGSSTNYADSVKGRFTISRDNSKNTVFLQMNSLRAEDTAVFYCADFKIDSDPRVYWGQGTQVTVSS | low polyreactivity |
| QVHLVESGGGLVQAGGSLRLSCAASGLIFRKYAMGWYRQAPGKERELVAAISSGGDTNYADSVKGRFTISRDNAKNTVYLQMNSLKPEDTAVYYCNADRKYWYGIALEYWGQGTQVTVSS | high polyreactivity |
| QVQLVESGGGLVQAGGSLRLSCAASVLIFGPYTMGWYRQAPGKEREFDAAINRSGGSTYYADSVKGRFTISRDNAKNTVYLQMNSLKPEDTAVYYCNAEQYGKQWYSGYNYDYWGQGTQVTVSS | high polyreactivity |
| HLQLVESGGGLVQAGGSLRLSCAASGRIFPGYAMGWYRQAPGKERELVAAIDGTGTSTYYADSVKGRFTISRDNAKNTVDLQMNSLNPEDTAVYYCAADGRPRGTFGYWGQGTQVTVSS | low polyreactivity |
| QVQLVESGGGLVQAGGSLRLSCAASGSTFNYNAMGWYRQAPGKERELVADISWRGGITYYADSVKGRFTISRDNAKNTVYLQMNSLKPEDTAVYYCNADAESFDDGYWGQGTQVTVSS | low polyreactivity |
| QVQLEESGGGLVQAGGSLRLSCAASGSIFTVNAMGWYRQATGKQMELVAAISQSGGSTYYADSVKGRFTISRDNAKNTVYLQMNSLKPEDTAVYYCNALLFIVHGDKSQTMDYWGQGTQVTGSS | low polyreactivity |
| QVQLVESGGGLVQAGGSLRLSCAASGFTFNGKSMGLYRQAPGKERELVAAISYSGGSTYYADSVKGRFTISRDYAKNTVYLQMNSLKPEDTSVYYCAADRTAYSVRGYTKVHSGHDYWGQGTQVSVSS | low polyreactivity |
| QVQLVESGGGLVQAGGSLRLSCAASGFTVGYAMGWYRQAPGKERELVAAITRGGGTRTSYADSVKGRFTISRDNAKNTVYLQMNSLKPEDTAVYYCAARRWWSPRTQYDYWGQGTQVTVSS | high polyreactivity |
| QVQLQESGGVLVQAGGSLRLSCAASGYISWYSEMGWYRKAPCKEREFVATNTCGTTTNYAVSVKGRFTISRDNAKNTVYLQKNSLKPEDTAVYYCAVHDARHYEFDYWGQGTQVTVSS | high polyreactivity |
| QVQLVESGGGLVQAGGSLRLSCAASGSTFHSYVMGWYRQAPGKERELVAAITSRGGSTNYADSVKGRFTISRDNAKNTVYLQMNSLKPEDTAVYYCAADGYWGWSYFRYDYWGQGTQVTVSS | low polyreactivity |
| QVQLVESGGGLVQAGGSLRLSCAPSGSISFSNALGWYRQAPGKERELVASITSGGSTKYADSVKGRFTFSRDNAKNTVYLQMNSLQPEDTAVYYCNADSPESVYDEYDYWGQGTQVTVSS | low polyreactivity |
| QVQLVESGGGLVQAGGSLRLSCAASGGTFPWYTKGWYRQAPGKERELVATIRGRDGSTFYADSVKGRFTISRDNAKNTVYLQMNSLKPEDTAVYYCAAVGRRKDLRWGVYYRFDYWGQGTQVTVSS | low polyreactivity |
| QVQLVESGGGLVQAGGSLRLSCAASGNIFFTYAMGWYRQAPGKERELVAAITSGGRTYYADSVKGRFTISRENPKNTFYLQMNSLKPEDTAVYYCASYYKYLGYGYWGQGTQVTVSS | high polyreactivity |
| QVQLVESGGALVQAGGSLRLSCAASGRTFTFNTMGWYRQAPGKERELVAAIDGDGTTNYADSVKGRFTISRDNAKNTVYLLMNSLKPEDTAVYYCAADFLYSFWYEPTFDYCGQGTQVTVSS | low polyreactivity |
| QVQLVESGGCLVQAGGSLRLSCAASGSIFRYNIGWYRQAPGKERELVAAISSSGVRTYYADSVKGRFTISRDNAKNTVYLQMNSLKPEDTAVYYCAAASGGRWRVGYWGQGTQVTVSS | high polyreactivity |
